We go through two molecules from US20120288494A1 (published 2012).

In assay [1] the target is T1, Human Chimera 9 (human IL-12 p40 G35D & G61L) (human, UniProt P29460 23-328).
T1 construct: Predominantly human p40 with rat residues; the two residues were only mutated together; also called Sites 9, 10
T1 chain: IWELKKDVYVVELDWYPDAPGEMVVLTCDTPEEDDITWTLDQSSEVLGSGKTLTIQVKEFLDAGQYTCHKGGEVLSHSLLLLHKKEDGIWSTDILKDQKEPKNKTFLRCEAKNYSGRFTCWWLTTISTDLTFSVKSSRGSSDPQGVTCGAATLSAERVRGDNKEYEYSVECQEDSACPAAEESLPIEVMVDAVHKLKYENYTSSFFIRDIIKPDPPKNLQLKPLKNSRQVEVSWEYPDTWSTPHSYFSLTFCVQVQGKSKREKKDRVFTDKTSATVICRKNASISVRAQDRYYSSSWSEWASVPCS
The assay can be described thus: SPR (Biacore), mAb immobilised; grade of the mutation's effect: - = no effect. On the technique in general: SPR reads the build-up and loss of mass on a sensor chip optically.
Procedure: (§1) Specifically, antibody was covalently linked via free amine groups to the Biacore chip dextran matrix by first activating carboxyl groups on the matrix with 100 mM N-hydroxysuccinimide (NHS) and 400 mM N-Ethyl-N′-(3-dimethylaminopropyl)-carbodiimide hydrochloride (EDC). This was completed across four different flow cells. […] Typically, 5000 resonance units were immobilized. Unreacted matrix EDC-esters were deactivated by an injection of 1 M ethanolamine.
(§2) To ascertain the epitope pattern of several different monoclonal antibodies against IL-12p40 supernatant samples, a direct binding assay was conducted. Aliquots of recombinant human IL-12p40 (100 nM) were injected across covalently immobilized antibody on the Biacore dextran chip biosensor surface at a flow rate of 25 mL/min. Before injection of the antigen and immediately afterward, HBS-EP buffer alone flowed through each flow cell. […] The response was measured in Resonance Units (RU's). […] The covalently immobilized antibody-coupled surfaces were completely regenerated using 10 mM HCl (5 min contact time) and retained their full binding capacity over twenty cycles.

In assay [2] the target is T2, Human Chimera 1 (human IL-12 p40 Y16R) (human, UniProt P29460 23-328).
T2 construct: Predominantly human p40 with the rat residue; HEK293.F supernatant; also called Site 7a
T2 sequence: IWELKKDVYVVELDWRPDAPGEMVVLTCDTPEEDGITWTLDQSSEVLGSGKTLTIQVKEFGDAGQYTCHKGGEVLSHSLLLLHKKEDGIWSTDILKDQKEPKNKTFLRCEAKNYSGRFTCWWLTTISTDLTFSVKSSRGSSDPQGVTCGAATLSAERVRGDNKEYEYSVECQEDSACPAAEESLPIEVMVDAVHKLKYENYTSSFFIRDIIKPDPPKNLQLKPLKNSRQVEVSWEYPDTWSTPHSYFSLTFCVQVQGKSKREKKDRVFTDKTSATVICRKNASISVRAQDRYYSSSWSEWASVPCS
In words: SPR (Biacore), mAb immobilised, chimera supernatant injected.
Procedure: as §1, §2

Assay [3] has as its target T3, Human Chimera 2 (human IL-12 p40 D87N) (human, UniProt P29460 23-328).
T3 construct: Predominantly human p40 with the rat residue; HEK293.F supernatant; also called Site 7b
T3 sequence: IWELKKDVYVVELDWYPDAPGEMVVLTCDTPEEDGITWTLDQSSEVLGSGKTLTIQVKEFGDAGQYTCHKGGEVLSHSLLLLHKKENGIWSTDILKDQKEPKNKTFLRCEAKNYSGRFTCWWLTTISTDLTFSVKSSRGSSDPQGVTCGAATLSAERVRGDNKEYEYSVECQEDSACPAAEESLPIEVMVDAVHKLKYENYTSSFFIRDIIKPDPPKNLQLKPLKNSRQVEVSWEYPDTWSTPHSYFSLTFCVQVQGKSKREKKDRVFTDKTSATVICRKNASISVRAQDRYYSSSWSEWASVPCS
Described as above.
Procedure: as §1, §2

Assay [4] concerns the target T4, human IL-12 p70 (human, UniProt P29460 23-328; P29459 23-219).
T4 construct: also called hIL-12; IL-12 p70 (p40/p35)
T4 sequence 1: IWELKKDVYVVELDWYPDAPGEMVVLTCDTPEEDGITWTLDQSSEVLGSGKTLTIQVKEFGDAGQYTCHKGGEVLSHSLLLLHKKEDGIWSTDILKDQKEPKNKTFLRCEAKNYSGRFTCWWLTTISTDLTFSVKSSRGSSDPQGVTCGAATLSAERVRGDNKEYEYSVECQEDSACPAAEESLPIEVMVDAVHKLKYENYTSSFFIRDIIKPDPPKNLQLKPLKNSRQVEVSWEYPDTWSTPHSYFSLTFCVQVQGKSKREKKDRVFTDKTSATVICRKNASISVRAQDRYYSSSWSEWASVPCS
T4 sequence 2: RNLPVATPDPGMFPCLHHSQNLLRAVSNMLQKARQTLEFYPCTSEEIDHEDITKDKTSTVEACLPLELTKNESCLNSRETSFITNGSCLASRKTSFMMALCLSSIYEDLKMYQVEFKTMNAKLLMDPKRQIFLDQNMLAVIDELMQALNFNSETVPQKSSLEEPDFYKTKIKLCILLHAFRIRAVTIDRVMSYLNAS
The assay can be described thus: method not stated in the sentence (Biacore named in Example 1A).

In assay [5] the target is T4, human IL-12 p70. In words: not stated in the sentence (FIG. 2).

B1: J695 (antibody, IgG1, V domains shown)
VH: QVQLVESGGGVVQPGRSLRLSCAASGFTFSSYGMHWVRQAPGKGLEWVAFIRYDGSNKYYADSVKGRFTISRDNSKNTLYLQMNSLRAEDTAVYYCKTHGSHDNWGQGTMVTVSS
VL: QSVLTQPPSVSGAPGQRVTISCSGSRSNIGSNTVKWYQQLPGTAPKLLIYYNDQRPSGVPDRFSGSKSGTSASLAITGLQAEDEADYYCQSYDRYTHPALLFGTGTKVTVLG
notes: Recombinant human mAb from CHO cells, IgG1 heavy and lambda light chain constant regions; also called human mAb J695
For orientation: Kd means a measure of binding affinity in units of concentration. The low end stands for higher affinity, the high end for lower affinity. Consider B1, for which the figures for the binding result in assay [1], in assay [2] and in assay [3] were “binds”, “no binding” and “no binding”, respectively. In addition, in the assay with human IL-12 p70 [4], the Kd was 0.102 nM.

B2: 103-14 (antibody, V domains shown)
VH: QVQLVQSGGGVVQPGRSLRLSCAASGFTFSSYGMHWVRQAPGKGLEWVAFIRYDGSNKYYADSVKGRFTISRDNSKNTLYLQMKSLRAEDTAVYYCKTHGSHDNWGQGTMVTVSS
VL: SYVLTQPPSVSGTPGQRVTISCSGGRSNIGSNTVKWYQQLPGTAPKLLIYGNDQRPSGVPDRFSGSKSGTSASLAITGVQAEDEADYYCQSYDRGFTGSMVFGTGTKVTVL
With B2, the “fold increase in efficacy over Joe 9” value with human IL-12 p70 [5] turned out to be 1000 fold.
